These results are taken from the DeepSol protein solubility set.

This data set is described as follows: soluble on expression in E. coli; label from the status in PepcDB or PDB records.
As to “QGEIRVGPSHQAKLPDLQPFPSPDGDTVTQHEELVWMPGVNDCDLLMYLRAARSMAAFAGMCDGGSTEDGCVAASRDDTTLNALNTLHESGYDAGKALQRLVKKPVPKLIEKCWTEDEVKRFVKGLRQYGKNFFRIRKELLPNKETGELITFYYYWKKT”, the “soluble on expression in E. coli” value is recorded as “not soluble”.

For the sequence “QKNPDSYNGAVRENYTWSQDYTDLEVRVPVPKHVVKGKQVSVALSSSSIRVAMLEENGERVLMEGKLTHKINTESSLWSLEPGKCVLVNLSKVGEYWWNAILEGEEPIDID”, the “soluble on expression in E. coli” value is reported as “soluble”.

Take “QKRAWITAPVALREGEDLSKKNPIAKIHSDLAEERGLKITYKYTGKGITEPPFGIFVFNKDTGELNVTSILDREETPFFLLTGYALDARGNNVEKPLELRIKVLDINDNEPVFTQD”: the “soluble on expression in E. coli” value is “soluble”.

Turning to “QLNPYLRLKVRRDHIIDDALVRLEMIAMENPADLKKQLYVEFEGEQGVDEGGVSKEFFQLVVEEIFNPDIGMFTYDESTKLFWFNPSSFETEGQFTLIGIVLGLAIYNNCILDVHFPMVVYRKLMGKKGTFRDLGDSHPVLYQSLKDLLEYEGNVEDDMMITFQISQTDLFGNPMMYDLKENGDKIPITNENRKEFVNLYSDYILNKSVEKQFKAFRRGFHMVTNESPLKYLFRPEEIELLICGSRNLDFQALEETTEYDGGYTRDSVLIREFWEIVHSFTDEQKRLFLQFTTGTDRAPVGGLGKLKMIIAKNGPDTERLPTSHTCFNVLLLPEYSSKEKLKERLLKAITYAKGFGML”, the “soluble on expression in E. coli” value was “soluble”.

Turning to “QMNYEEVIKKYRGEENFDHAAYDWRLHSGVTPVKDQKNCGSCWAFSSIGSVESQYAIRKNKLITLSEQELVDCSFKNYGCNGGLINNAFEDMIELGGICPDGDYPYVSDAPNLCNIDRCTEKYGIKNYLSVPDNKLKEALRFLGPISISVAVSDDFAFYKEGIFDGECGDQLNHAVMLVGFGMKEIVNPLTKKGEKHYYYIIKNSWGQQWGERGFINIETDESGLMRKCGLGTDAFIPLIE”, the “soluble on expression in E. coli” value was “soluble”.

On to “QPAQSGAFLVDQSQLTQSSILIGHQGGQLSNPDYPELSVMNGVINGFGGRLFNEIRSRQGLAYSVYGVWSPRYDYDGQFIAGGSTRTEATVPFITAMKGEIKRLQTELITPAELAYAKDSILNSFVFNFEDPGQTLSRLMRYEYYGYPEDFIFQYQREVEATTIEDVQRVAQTYLKPEQLTVLVVGN”, for which the “soluble on expression in E. coli” value is recorded as “not soluble”.

In the case of “QRVKRLLSITNDKHDEYLTEMVPLLVEFAKDECHNPFIDKDGNESIPSGVLIFVAKAAQFYMTNAGLTGRSMDTVSYNFATEIPSTILKKLNPYRKMAR”, the “soluble on expression in E. coli” value was “soluble”.

“QSFRAIQLSDLHIGGLIEEHYMEALGERINALKPDMIFLTGDITDASCEQIRTPLEKLKALQAPLGIYFVSGNHEFFHGIQKTMDFLREMGIVVLENDSRTIEGLVNIAGVHDLFGRRIGFLEPDLEQALYGIDPSLPTILLAHQPKFAKEALGYPVDLILSGHTHGGQIAPFGLLVR”: the “soluble on expression in E. coli” value is reported as “not soluble”.

With “QSIEKLYAEFETEPIASASIAQVHKARLHSGEQVAVKVLRPNLLPVIEQDLSLMRFGAGWVERLFADGKRLKPREVVAEFDKYLHDELDLMREAANASQLGRNFQNSDMLIVPKVFYDYC”, the “soluble on expression in E. coli” value is on record as “not soluble”.

Regarding “QSQGGGSVTKKRKLESSESRSSFSQHARTSGRVAVEEVDEEGKFVRLRNKSNEDQSMGNWQIRRQNGDDPLMTYRFPPKFTLKAGQVVTIWASGAGATHSPPTDLVWKAQNTWGCGSSLRTALINSTGEEVAMRKLVR”, the “soluble on expression in E. coli” value was “soluble”.

As to “QSTSNKTLDTLIVTGTRISDRTAAESSSPIDIISQESLEATGTTELATALSRMVPSLNFPRPAVSDGNDAVRPAQLRGLSPDQVLVLVNGKRYHTTALVNLNEIQGRGSAPADLNTIPIAAIERIEVLRDGASAQYGSDAIAGVINIVLKGAGKGGSITGHYGEYKVKDGKQYELSGDTGLSFAGTGKVHFAAQGGHEDQTNRAVPYNDGIIRQRYGDPKINQGAFSYNGSYSPTEGVTFYSFGMVSRRKVLSNGFYRWADDARNRPEIYPEGFLPQIYNVANDTSWVSGMKASTAWGLNIDLSYNYGNNQLTFDVRNSLNNSLGLSSPTAFYAGGLEITQHVLNADFNKSVDWGHLAYPLNLAFGVEWRGEIFNEYQGEEASYINGGVRSSAGTLLPGAQVFSGFKPSDSGGFDRNSHSMYIDLEGNLTEKFSAGVAGRYEHYSDFSNTR”, the “soluble on expression in E. coli” value was “not soluble”.

In the case of “QTMGGDDVKVVQYNQEKLVQTRMSVADNGWIYVMTHSGYDTGNSNVKIFRSKDQGATYQKLRDWDPSDDYQFQDFDIVVTGKNESDIKIWSVELMNKPGGYKSRVAVFSRDANAQNAKLVYKEDFSNVQLYDVDIASNYRSPSSLNNGGNPFALAFAYTGFNNTHKISFVDYVFSLNGGQNFNKNLLFSQDGEKKIDKVDLSLGSTSESMGHNAWPLMGVVFEMNKQGGKSDIGFLSNFVDNDPEFQWSGPIKVSESDMSFSPKIQMLLDEDNNTINGESCHNFMITYSDYDSEYSDWDIRYVYPKKSFKYEKGKTPTMDDLVEAFLTASYQSETNSGLGYDKNANHYLITYAKKEENGTNTLKYRWANYDKIHNKDLWSDTFTYTSSANALYTPQVDINPTKGLVCWSWVEYLPGKRIVWSDTQWTHANGVEDIVMQEGSMKLYPNPAQE”, the “soluble on expression in E. coli” value is “not soluble”.

For the sequence “QTQTVAIIGMGSRGLSILEQLIGMSRHADQQPLQIEVFDPQPPGSGLHSAQQPDYLMLNTMAGQLSAFSSAFPACEPAGWTFLQWCGAQDVRLDERGHVSTNGLGRPVAFGDFVPRALLGRYLQHSYRFLLQQCPAHVQVRHYAERVIKCRSRSDAPGFRLRSLTREMNVDALFLTVGHASSATELQDVGATVAIEGLGLTAMDTLASLTQGRGGRYVRDAGFAGWRYLPSGREPRVFMYSRSGLPFHARPHWYPTRHAALPRLFFTAVAIGDLRKQNGGGQLDFQADVLPLIKDEMRAVFYQTKVRLDAPRQLEAVQRTLREAVARPALFARLAEQWGEFDPEQWLTTQRWTGEAGTYGQWFVEWIKRDLALSRLGTAHSPIRQALEVWRDCRDLLRLVADRNGLTESSTLAFYDTWAGLGNRLVGGPQKERHEDLLALIDAGVVTVLAPMSDAQQADSRFDSVMAARVAPSGLSGNRSALLDDLREQGL”, the “soluble on expression in E. coli” value was “not soluble”.

As to “QVEVIVMMHGRSTATSMVETVQELLSIESGIALDMPLTVEVKAMYEKLKQTVVKLNPVKGVLILSDMGSLTSFGNILTEELGIRTKTVTMVSTPVVLEAMRKASLGRGLEDIYQSCEQLFENKYKAHVLRAKP”, the “soluble on expression in E. coli” value was “not soluble”.

For “QVQLQQSGPELVKPGALVKISCKASGYTFTNYDIHWVKQRPGQGLEWIGWIYPGDGSTKYNEKFKGKATLTADKSSSTAYMHLSSLTSEKSAVYFCAREWAYWGQGTLVTVSAAKTTAPSVYPLAPGCGDTTGSSVTLGCLVKGYFPEPVTLTWNSGSLSSGVHTFPAVLQSDLYTLSSSVTVTSSTWPSQSITCNVAHPASSTKVDKKIEPRGPTIKPC”, the “soluble on expression in E. coli” value is “soluble”.

As for “QYSLLHVSDLFFLAQQAMPGVQVLDALTGKPVEGASVDASMRYSIDRSVHTLSPTDRYGRIDLPKSYNRFFPYTDGDRSYPVVSAYTYKQDQVDLSKKNERKYIVSTDRAIYRPGQKVHFFGQCDRIGYAVEDARAIGGSEVEVVLEDANSKEIGRLLCQADEMGRFSGSFDLPTGILNGLFGLRVGGDTYPFSVEEYKRPTFEVGLRSPDAAYAMGDTLRIRGEAKTFTGIGMRGATVNYRLSLTPYTRRWWGRPVADRVVQTGEAVVDES”, the “soluble on expression in E. coli” value was “not soluble”.

In the case of “RAGYWEWNVENGTILIDRQWAVISGYNSADFDMLTMEQWRELCHPADLGVVTKSIEELLDGSMERLELELRVRHKNGEWIRVLDCGKVTGRSK”, the “soluble on expression in E. coli” value is on record as “not soluble”.

“RAKKETTMTDVRIQALHFDATDQLKDFVQKKISKLNRLSDGITGAEVVLKLVKPETVQNKEASIRLYIPGDDLFAEKIADTFEEAIDLTVDALKRQIEKRKEQRK”: the “soluble on expression in E. coli” value is on record as “not soluble”.

Take “RALIGRLPDGRADLLENFAAGPGLAQRFGERYPEHAGRDLRFIMELYHAGDTHARDYITATLAAAGETIAGFASAIDVDAIIIGGGVGNIGDAIIKPFAHGFAAHAIPPLDTIPIRQAQLGTDAPIVGAAHLGHSAIE”: the “soluble on expression in E. coli” value is given as “not soluble”.

For the sequence “RAPDLAGVPDCLVIVGGSMAAVKAPTALRRLREGGASTAVIATRAALAFITPLSLATAGNCEVATDETWFAPQPIAQHLSLARARVTVVLGASAELLAAAAHGHADTLATATLLSAEGQVLWVPAMNERMWLHPAVQANAERLRGWGHLFLGPETGAFGTPGEGSGTGRMAEPEAIAARALALLNEQDAEAEAAPQDLAGLKVV”, the “soluble on expression in E. coli” value was “not soluble”.

Consider “RATPRMEDLASTDLSTRATGSINAVYFTNWGIYGRNFQPADLQASKILHVLYSFMNLRVDGTVYSGDTYADLEKHYSDDSWNDIGTNAYGCVKQLYKLKKANRSLKIMLSIGGWTWSTNFPAAASTEATRATFAKTAVEFMKDWGFDGIDVDWEYPASETDANNMVLLLQRVRQELDSYSATYANGYHFQLSIAAPAGPSHYNVLKLAQLGSVLDNINLMAYDYAGSWDSVSGHQTNLYPSTSNPSSTPFSTKAAVDAYIAAGVPASKIILGMPIYGRAFVGTDGPGKPYSTIGEGSWESGIWDYKVLPKAGATVITDSAAGATYSYDSSSRTMISYDTPDMVRTKVSYAKGLGLGGSMFWEASADKTGSDSLIGTALSSMGSHDSTQNCLSYPNSKFDNIKNSLS”, for which the “soluble on expression in E. coli” value is “soluble”.

Take “REEVRVVVGAERTELLLPLLRDKRVALVANATSVVGTEREHLLDNLLRQGVNVVKILGPEHGFRGDADAGATVKDERDVRTGIPIVSLYGKNKKPTPRMLADVDVLLFDMQDVGTRFFTYISTLHYVMEACAEEQKKLIVTDRPNPNDYVDGPILQDDCRSFVGVDPLPILHGLTIGELANMINGEGWLGKKEMKCDLTVVPMSGWKHGQEYALPVKPSPNLPTANAIAWYPSLCLFEATIMSVGRGTDFPFEVLGYPKKVFGSFVFVPRPIRGMDSNPLYKGRHCYGVDLRGEKAPRGLSLQLLIRYYQTARREGIKFVNRKQMFNLLAGTKELAQQIEKGRTEEQIRASWQSDLDKYHKLRKKYLLY”: the “soluble on expression in E. coli” value is listed as “not soluble”.

As for “RHAIAETLSQEIKQELKDLYMDKADFKVVFTKGKFNREGNETVAFHISTNPGEDFKPLVKVASGGELSRLMLAIKSAFSRREDKTSIVFDEVDTGVSGRVAQAIAQKIYKIGNHGQVLAISHIPQVIAISDYQYFIEKQSSKATTVSTVRLLNQEERIEEIAKML”, the “soluble on expression in E. coli” value was “not soluble”.

Consider “RIRKEPPVYAAGSLEEQWYLEIVDKGSVSCPTCQAVGRKTIEGLKKHMENCKQEMFTCHHCGKQLRSLAGMKYHVMANHNSLP”, for which the “soluble on expression in E. coli” value is “soluble”.

Take “RIVEIPVCYGGEFGPDLEEVAKINQLSPEEVIDIHTNGEYVVYMLGFAPGFPFLGGMSKRIAAPRKSSPRPSIPAGSVGIAGLQTGVYPISTPGGWQLIGKTPLALFRPQENPPTLLRAGDIVKFVRISEKDYHAYKEESN”: the “soluble on expression in E. coli” value is “soluble”.

Turning to “RMLTDRRVHDADFLTDELGLTSLGLVNHQHHHSMKKQALNLNGGYHTHNDRTSSQAMKRV”, the “soluble on expression in E. coli” value is “not soluble”.

Take “RMTVWQLDLQKRLVQVDGDVARLIGLSHVPPELPVAVFENYVDPEDLPLLRAAEAAALRGEPMQVELRLVLESGGRRWLRLMGEPRPDA”: the “soluble on expression in E. coli” value was “not soluble”.
